Measured values from paper PMC9654539, “Alkaline Stress Causes Changes in Polyamine Biosynthesis in Thermus thermophilus” (International Journal of Molecular Sciences, 2022).

Substrate: N=C(N)NCCCCN
Assay: purified protein
Format: biochemical, Thermus thermophilus
Conditions: pH 10.0, 75 °C, 50 mM Tris-HCl, 10 μM MnCl2, 0.005–1 mM agmatine

B1: TtSpeB (aminopropylagmatine ureohydrolase) (Thermus thermophilus HB8) (protein)
chain: MRLVFGEKDTPYEEARVVVLPVPYDLSLSFLPGARRGPEAILLASRELEPFLLELGAAPEEVGIHAAEPVPWVAGMAEESHRLIREEALRHLRAGKWVVALGGDHSVTHPLVQAHREALGDFSLLHVDAHADLYPEWQGSVYSHASPFYRLLTEGFPLVQVGIRAMDRDSLRLARKKGVALFPAHRIHREGLPLDEILRALGKRVYISLDFDALDPSLMPSVGTPLPGGLSYRQVVDLLEAVFREKEVVGMDFVELSPNGQFHAEMTAAQLVYHAIGLKGLQAGWLSREVDHI
notes: gene amplified from HB8 genomic DNA, pET21b (pET21speBHis, NdeI/HindIII), His-tagged, tag not reported cut, E. coli BL21(DE3), heat step 70 °C, Ni-NTA
  Km: 171 µM
